Laboratory results reported in the domain aggregation screens of Martell et al. (2025).

Experiment: soluble fraction after stress (log2 fold change); higher = more stays soluble; pooled small domains, quantitative proteomics
Conditions: stress: 75 degC
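Further: 20 min heating vs room temperature control held 20 min.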

Row | Sequence | soluble fraction (log2)
1 | HMSQVLVRINQDLNIRSGPGAQYDIIAVYRSGAIASVIGTYNNWYKVNFELDSKSYTGWINGTFTSR | -2.48
2 | HMSQYELEDVEKQRLKFKNGDEKALWLLSDIYKDNSQSYEVRLAALRALSESRHPLIIFDIQSSVK | -0.527
3 | HMSRAAQRLFMSQPPLSRHIRQLEDRLGVTLFVRHTRGLTLTEDGQRVLEMVRPLLDLQDKTYAALSQLT | 0.0487
4 | HMSREMIKSELESISGLGKSGIEKLYTHFINIENIKSASLENIRNIPGISYKVADNIYKHFH | -0.238
5 | HMSRLGINTTIEDIKMVGKIIMPLLKQGQSVYQILASHPEIPYSEKTLYSYIEDNIFKDAGIDISVFDL | -1.32
6 | HMSRLLERARDLMAKPGAWLSAEGGAYALRLSPDRRSRISLTLTETEFRALIDQPGLRVRPGGGWSGRA | -3.05
7 | HMSRMGDSIKSLRSRNNMSQDALAEKLNVTRQAISNWENSKTQPDADTLKNLGIIFNVTVDEIINNDF | 0.0824
8 | HMSRQREWIYDYIQSHPDRHMSVEEIYEGLKAENREVSVATVYRNLKILQDENRIASLMLESGKQVFDK | -0.384
9 | HMSRREEALIALAQRVARQVARTKQPVTLEPMPANERRVIHVALRDNPDVETRSSGEGDQRRVTVYPRQ | -0.228
10 | HMSRRIEIELTSSRPDGSWTWRAAGAREPKGVLDGTLLSQGSKPGDVVKAEAEFDIDGITIVSITQ | -0.405
11 | HMSRSKLNRLDKIKKMLIAQTGISIKEFSASLNVSEITIRRDLNLLEEQGFIRLVNGVAIYRM | -1.75
12 | HMSRSLEIDVLVKALLEQDRRKFMLVTDGTADVTVRYNNALPSLFREGQGVVAEGLMDNGKFIATNVLAK | -0.811
13 | HMSRSLLAALEKLRESHTGSLPASVLSSAQRRSLESFAQTTKSVQMRPSGRGVVFAIINPEVVDKHWRELS | -0.959
14 | HMSRSSQMVNFIRLLSQEKKVSVNSIFSSSVQLSDGIIVKINDFYYRVNLSLDQKTYSLVEVS | -0.483
15 | HMSRVKQERLNRFVEAFEAYFRSVHPGEIDVEYLKSDEFGDIFESILHRVMHTASEEKMHRFKKILLNEM | -2.14
16 | HMSSADIPFSRFIDDVEAQRVEKVTIDGVNVTGRYRSDGAAFKTIIPSQYDGLVPILRQNKVDITVKDA | 0.24
17 | HMSSAMDMISRDVRNADSISISTTTYSKKIDLYNFDRNGDIEELHSYSAKNDLGILYNDEPI | -0.35
18 | HMSSANIKLDPLERQATQQIINNIKRKYPNATIENLQEVANDAIATMRQPEFSNYTVDKFVSYFLSM | -0.519

Row | Sequence | soluble fraction (log2)
19 | HMSSARKVTVRGVRELPGIFMEKAEILDDGVRFFYRGEMEKLIGALQGLPIRDLTITEPDLEEVFLHFY | -1.48
20 | HMSSASETQYELALQAMRDGDNDAALRSLSTALASGFSDWQRIDEEPLLAALANDVRFQVLRSRWK | 0.0593
21 | HMSSDLVDYLVKYVAIVDNQEIEIADSKIGTAELGTTVSEVAKTVGNYYPKATVLSVKITGRNQEIVFEY | -2.91
22 | HMSSEPYISLPRGAAHDAYPLSTKAVAAQLGMSEVWLANLRSKGKGPRYVRVGTRVFYSPEDVAQWRRAT | -1.18
23 | HMSSESIIIKKLIEEFIHNENKYSPLSDEKLSYLLKNKGFSVARRTVAKYRDELGILSTRERKIKI | -1.76
24 | HMSSEYARFFSGNYYEVLGVAKNASYDEIKAAWKKLVKEYHPDLHPQRQEEFTKIIQKINEAYEYFKKMH | -0.583
25 | HMSSFFLIDVSQVRIGMYIQLDVGWMRHPFPVNSFRITNQEQLDTLRSLNLAQVRWSPAKSDL | -3.64
26 | HMSSFIEAIKQSGTDSLDVIMKNGRVYRYVGIDADRLGYLLEPHQQKLSLEESIGRFYIDYIKGIYEAIE | -1.47
27 | HMSSGNLESLLNKLHNEDYFVRLDAVKALGALGDPGAIDYLIEMLSENGIMRGWVANSLAALGEAQWKKII | -2.22
28 | HMSSHSAEAVRHRIKSMIDHEARDGDVLSDDRIVELLNQAGIDIARRTVAKYREALRIPSSVERKRRLKA | -0.163
29 | HMSSKRDQFIVLGQEILEKMFKNEGLEFSEKGLLAVMPNFEAESINDIYAKVGEGLISGWDVMKAVYPAY | -0.311
30 | HMSSKSLAALSPQEYRLLPLVAEGKTNKEIASALALSDKTVKNYLANIFSKLGITRRTQAATLYARAL | -0.338
31 | HMSSKYLKIYNDIVGKIDSGIFEANTKLPSESQLMDEYNVSRYTVRKSLNLLEQNGYIEKSKGKGSFVLDM | -1
32 | HMSSLQFVTLTLMEGHAWVGREIQELLMPPQMRIALIRRGDSQVIPKGSTILESADELILSAIEYQG | -4.48
33 | HMSSLREQVADALRAHLVSGRMRPGVLYSAPKLAAEFGVSATPVREAMLDLVSEGLVDVVRNKGFRVT | -0.597
34 | HMSSPPNPQLAKRYISYSVDDIARLFGIHRHTVREWIKRGLPVIDQQRPLLVQGADLAEFLRKRRA | -0.948
35 | HMSSPVIQINTRNDGWIIKLLQPAVEKDVLEGYLADVGLKLQSQMMEKILAAPAGTEFHIKRGSNILTE | -0.291
